Test results published in patent publication US20060281130A1 (ENKAM PHARMACEUTICALS A S, published 2006).
No end group written: not given here.

Columns and labels:
[1] = target: FGFR on embryonic rat hippocampal neurons (rat); test: cell-based or functional assay
[2] = target: T1, combined FGFR1 Ig modules 2, 3 (mouse, UniProt P16092 141-365); test: SPR (BIAcoreX), FGFR Ig modules 2, 3 immobilized on CM5
T1 construct: Expressed in Drosophila S2 cells; immobilized on CM5 chip by amine coupling in the SPR experiments; also called FGFR Ig modules 2, 3; FGFR modules 2, 3
T1 sequence: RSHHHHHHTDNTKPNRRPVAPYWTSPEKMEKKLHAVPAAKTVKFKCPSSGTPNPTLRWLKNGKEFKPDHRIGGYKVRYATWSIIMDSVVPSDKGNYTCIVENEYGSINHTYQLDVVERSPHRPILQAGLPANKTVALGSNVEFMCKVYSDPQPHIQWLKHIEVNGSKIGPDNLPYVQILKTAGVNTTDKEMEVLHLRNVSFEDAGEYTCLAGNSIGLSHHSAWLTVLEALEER

[3] = target: T1, combined FGFR1 Ig modules 2, 3; test: SPR, FGFR Ig modules 2, 3 immobilized
[4] = target: T1, combined FGFR1 Ig modules 2, 3; test: SPR, apparent Kd, FGFR Ig modules 2, 3 immobilized

**Q.** Which “neurite outgrowth from hippocampal neurons, stimulatory effect relative to the entire FG loop peptide” value [1] does the source give for VAENQQGKS [truncated FG loop peptide, nonamer V78-S84 (as printed)] here?
**A.** ~50%

**Q.** Which “neurite outgrowth from hippocampal neurons, stimulatory effect relative to the entire FG loop peptide” value [1] does the source give for AENQQGK [truncated FG loop peptide, heptamer Ala77-K83] here?
**A.** ~50%

B1: combined NCAM F3 modules 1, 2 (other, rat)
chain: AGHHHHHHQADTPSSPSIDRVEPYSSTAQVQFDEPEATGGVPILKYKAEWKSLGEEAWHSKWYDAKEANMEGIVTIMGLKPETRYAVRLAALNGKGLGEISAATEFKTQPVREPSAPKLEGQMGEDGNSIKVNLIKQDDGGSPIRHYLVKYRALASEWKPEIRLPSGSDHVMLKSLDWNAEYEVYVVAENQQGKSKAAHFVFRTSAQ
notes: range 507-705; Recombinant, expressed in P. pastoris KM71; also called double module protein
**Q.** Which results are given for B1?
**A.** Kd [2]: 9.97 µM; koff [2]: 0.00556 s⁻¹; kon [2]: 889 M⁻¹ s⁻¹

**Q.** Which “neurite outgrowth from hippocampal neurons, stimulatory effect relative to the non-mutated peptide” value [1] does the source give for EVAVVAENQQGASAA [FG loop peptide in which Y74, K83 and K85 were substituted with alanine] here?
**A.** ~60%

B2: dendrimeric FG loop peptide (SEQ ID NO: 1) (peptide)
peptide: EVYVVAENQQGKSKA
modifications: also: tetrameric dendrimer: four peptides joined through their C-termini to a three-lysine backbone
notes: Tetrameric dendrimer on a three-lysine backbone; also called dendrimeric version of the FG loop peptide
**Q.** How did the koff [3] turn out when B2 was run?
**A.** 0.00397 s⁻¹

**Q.** And the kon [3]?
**A.** 2070 M⁻¹ s⁻¹

**Q.** What about the Kd [4] of the same binder?
**A.** 2.58 µM
